Article PMC4912634

Target: tubulin heterodimer (porcine/bovine brain tubulin) (not stated (porcine or bovine brain)) (UniProt Q6B856)
Test: ITC; PN2-3 proteins/peptides titrated into tubulin in the cell; 15 °C; 1xBRB80 (80 mM PIPES-K, 1 mM MgCl2, 1 mM EGTA, pH 6.8); one set of binding sites model; tubulin 9 μM for wild type and mutant PN2-3

- Kd: 4.8 µM
Binder: KQPFLKRGEGLARFTNAKSKFQK [PN2-3C peptide (PN2-3's C-terminus, aa 372-394 of CPAP)]
